What all share (assay): SPR
A general note: Surface plasmon resonance follows binding to a sensor surface in real time, without labels.

For assay [1], the target named is T1, recombinant human integrin α6β4 (human, UniProt P23229;P16144).
T1 chain 1: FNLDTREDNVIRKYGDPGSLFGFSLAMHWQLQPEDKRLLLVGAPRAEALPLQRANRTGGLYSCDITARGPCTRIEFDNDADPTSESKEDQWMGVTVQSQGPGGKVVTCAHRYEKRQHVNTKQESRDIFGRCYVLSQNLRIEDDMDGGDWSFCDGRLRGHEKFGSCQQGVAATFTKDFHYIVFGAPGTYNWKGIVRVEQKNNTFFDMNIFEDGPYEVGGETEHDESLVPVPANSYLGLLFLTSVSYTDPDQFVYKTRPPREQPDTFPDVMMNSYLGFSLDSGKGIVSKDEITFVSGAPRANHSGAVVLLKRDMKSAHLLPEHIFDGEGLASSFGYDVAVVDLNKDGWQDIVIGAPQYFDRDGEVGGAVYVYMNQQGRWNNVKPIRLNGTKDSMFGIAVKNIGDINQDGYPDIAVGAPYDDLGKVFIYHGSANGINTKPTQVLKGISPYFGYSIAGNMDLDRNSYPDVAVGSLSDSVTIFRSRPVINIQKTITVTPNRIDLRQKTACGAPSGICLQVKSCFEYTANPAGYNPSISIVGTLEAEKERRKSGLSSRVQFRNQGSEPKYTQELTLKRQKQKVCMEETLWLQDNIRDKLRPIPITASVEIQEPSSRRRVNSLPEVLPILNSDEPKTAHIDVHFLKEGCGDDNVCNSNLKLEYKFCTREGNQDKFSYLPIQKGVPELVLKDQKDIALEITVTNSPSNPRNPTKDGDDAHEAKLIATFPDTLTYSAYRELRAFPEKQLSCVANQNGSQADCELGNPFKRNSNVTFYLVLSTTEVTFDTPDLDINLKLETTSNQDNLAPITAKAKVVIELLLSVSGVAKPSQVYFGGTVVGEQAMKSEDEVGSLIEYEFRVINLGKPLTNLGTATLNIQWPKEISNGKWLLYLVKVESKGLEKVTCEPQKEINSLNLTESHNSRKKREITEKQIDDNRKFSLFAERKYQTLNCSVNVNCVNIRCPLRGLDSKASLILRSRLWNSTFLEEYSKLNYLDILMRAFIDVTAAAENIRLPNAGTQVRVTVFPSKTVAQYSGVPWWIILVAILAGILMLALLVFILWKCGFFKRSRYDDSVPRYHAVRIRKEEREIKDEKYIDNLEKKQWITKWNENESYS
T1 chain 2: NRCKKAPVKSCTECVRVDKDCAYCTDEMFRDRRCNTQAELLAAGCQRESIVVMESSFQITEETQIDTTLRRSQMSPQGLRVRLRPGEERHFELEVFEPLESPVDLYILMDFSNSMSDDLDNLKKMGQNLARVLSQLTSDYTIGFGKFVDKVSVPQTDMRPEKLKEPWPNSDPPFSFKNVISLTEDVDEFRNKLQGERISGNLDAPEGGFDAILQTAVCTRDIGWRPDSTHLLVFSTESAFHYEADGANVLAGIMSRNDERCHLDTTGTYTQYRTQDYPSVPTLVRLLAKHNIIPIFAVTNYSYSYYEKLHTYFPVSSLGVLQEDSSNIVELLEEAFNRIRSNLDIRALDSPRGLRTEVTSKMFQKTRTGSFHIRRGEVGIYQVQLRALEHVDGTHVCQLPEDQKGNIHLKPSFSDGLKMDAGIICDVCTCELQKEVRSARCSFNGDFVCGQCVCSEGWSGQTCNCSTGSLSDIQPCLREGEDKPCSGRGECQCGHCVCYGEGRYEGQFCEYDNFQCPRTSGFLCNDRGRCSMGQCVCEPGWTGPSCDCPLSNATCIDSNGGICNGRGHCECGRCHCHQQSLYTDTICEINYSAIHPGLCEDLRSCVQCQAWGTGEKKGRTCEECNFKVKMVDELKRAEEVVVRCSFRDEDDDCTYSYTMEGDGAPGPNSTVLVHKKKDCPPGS

Assay [2] deals with T2, recombinant human integrin α6β1 (human, UniProt P23229;P05556).
The target of assay [3] is T1, recombinant human integrin α6β4.
Assay [4] concerns the target T2, recombinant human integrin α6β1. This is another data set of the same source.

This note sets out measurements from paper PMC6030200 (2018).

As a reminder, the Kd is the constant that tells how readily two partners part at equilibrium. One may read the koff as the rate constant with which the complex falls apart.

B1: HAdV-40 penton base protein, recombinant, soluble (natural protein)
chain: MRRAVGVPPVMAYAEGPPPSYESVMETADLPATLQALHVPPRYLGPTEGRNSIRYSELAPLYDTTRVYLVDNKSADIASLNYQNDHSNFQTTVVQNNDFTPTEAGTQTINFDDRSRWGGDLKTILRTNMPNINEFMSTNKFRARVMVEKVNRKTNAPRYEWFEFTLPEGNYSETMTIDLMNNAIVDNYLAVGRQNGVLESDIGVKFDTRNFRLGWDPVTKLVMPGVYTNEAFHPDIVLLPGCGVDFTQSRLNNLLGIRKRMPFQKGFQIMYEDLEGGNIPALLDVEKYEASIKEAQEIRGADFKPNPQDLEIVPVEKDSKERSYNLLEGDKNNTAYRSWFLAYNYGDAEKGVKSWTLLTTTDVTCGSQQVYWSLPDMMQDPVTFRPSTQVSNYPVVGVELLPVHAKSFYNEQAVYSQLIRQSTALTHIFNRFPENQILVRPPAPTITTVSENVPALTDHGTLPLRSSISGVQRVTITDARRRTCPYVHKALGIVAPKVLSSRTF
Take B1: the equilibrium dissociation constant (Kd) turned out to be 32.7 nM in assay [1] and 426 nM in assay [2]. Also, the koff in assay [3] was 0.0049 s⁻¹.

B2: HAdV-41 penton base protein, recombinant, soluble (natural protein)
chain: MRRAVGVPPVMAYAEGPPPSYESVMGSADSPATLEALYVPPRYLGPTEGRNSIRYSELAPLYDTTRVYLVDNKSADIASLNYQNDHSNFQTTVVQNNDFTPAEAGTQTINFDERSRWGADLKTILRTNMPNINEFMSTNKFKARLMVEKKNKETGLPRYEWFEFTLPEGNYSETMTIDLMNNAIVDNYLEVGRQNGVLESDIGVKFDTRNFRLGWDPVTKLVMPGVYTNEAFHPDIVLLPGCGVDFTQSRLSNLLGIRKRLPFQEGFQIMYEDLEGGNIPALLDVAKYEASIQKAKEEGKEIGDDTFATRPQDLVIEPVAKDSKNRSYNLLPNDQNNTAYRSWFLAYNYGDPKKGVQSWTLLTTADVTCGSQQVYWSLPDMMQDPVTFRPSTQVSNYPVVGVELLPVHAKSFYNEQAVYSQLIRQSTALTHVFNRFPENQILVRPPAPTITTVSENVPALTDHGTLPLRSSISGVQRVTITDARRRTCPYVHKALGIVAPKVLSSRTF
On to B2, for which the results for the dissociation constant Kd in assay [1] and in assay [2] were 41.2 nM and 473 nM, respectively. For the same molecule, the koff in assay [3] was determined as 0.022 s⁻¹; in assay [4], 0.011 s⁻¹.

B3: HAdV-5 penton base protein, recombinant, soluble (natural protein)
chain: MRRAAMYEEGPPPSYESVVSAAPVAAALGSPFDAPLDPPFVPPRYLRPTGGRNSIRYSELAPLFDTTRVYLVDNKSTDVASLNYQNDHSNFLTTVIQNNDYSPGEASTQTINLDDRSHWGGDLKTILHTNMPNVNEFMFTNKFKARVMVSRLPTKDNQVELKYEWVEFTLPEGNYSETMTIDLMNNAIVEHYLKVGRQNGVLESDIGVKFDTRNFRLGFDPVTGLVMPGVYTNEAFHPDIILLPGCGVDFTHSRLSNLLGIRKRQPFQEGFRITYDDLEGGNIPALLDVDAYQASLKDDTEQGGGGAGGSNSSGSGAEENSNAAAAAMQPVEDMNDHAIRGDTFATRAEEKRAEAEAAAEAAAPAAQPEVEKPQKKPVIKPLTEDSKKRSYNLISNDSTFTQYRSWYLAYNYGDPQTGIRSWTLLCTPDVTCGSEQVYWSLPDMMQDPVTFRSTRQISNFPVVGAELLPVHSKSFYNDQAVYSQLIRQFTSLTHVFNRFPENQILARPPAPTITTVSENVPALTDHGTLPLRNSIGGVQRVTITDARRRTCPYVYKALGIVSPRVLSSRTF
In the case of B3, the dissociation constant Kd in assay [1] worked out at 95 nM; in assay [2] it was 1560 nM. For the same molecule, the dissociation rate constant (koff) in assay [3] amounted to 0.0045 s⁻¹; in assay [4], 0.0059 s⁻¹.
